Data reported in patent US7115576B2, “Water-soluble antibiotic comprising an amino sugar, in the form of a polysaccharide conjugate” (Fresenius Kabi Deutschland GmbH, priority 2001, dated 2006).

Experiments:
Water solubility = format: physicochemical
erythrocytes = test: Haemolysis comparison test (extinction of supernatant at 576 nm); format: cell-based, human; settings: 37°C, 20 min
Description: Of this stock solution, three dilutions were produced in accordance with Table 2 and their haemolytic action also investigated.
Production of the erythrocyte suspension: freshly taken human blood was diluted with approximately 5 times the volume of sterile 0.9% NaCl solution (batch designation: 9055A64 produced by the company Braun Melsungen) and centrifuged for 5 minutes at a relative centrifugal acceleration of 2000. The supernatant solution was then drawn off and the sedimented erythrocytes treated twice more in the same way.
The erythrocytes thus washed were counted in a Neubauer counting chamber and—where necessary—diluted again with sterile 0.9% NaCl solution to a final concentration of approx. 5·10^8 erythrocytes per ml. This suspension is according to DIN standard usable at room temperature for up to 6 hours.
Haemolysis comparison test: 5 ml of the solution to be tested was mixed with 1 ml of the above erythrocyte suspension, transferred to a cleaned centrifuge tube and incubated in a water bath at 37±1° C. for 20 minutes. Centrifuging was then performed for 5 minutes at a relative centrifugal acceleration of 2000.
The extinction of the supernatant liquid was measured. 5 ml of the 0.9% NaCl solution and the 5% glucose solution, which were mixed with 1 ml of the erythrocyte suspension, also incubated at 37±1° C. for 20 minutes and then centrifuged as above, served as negative controls.
For the test for haemolysis, the extinctions of the respective supernatants were measured in a photometer against the negative controls at a wavelength of 576 nm using a cuvette 10 mm in thickness. Owing to the differing stainings of the solutions, the extinction was also measured for the purpose of comparing the solutions without erythrocyte suspension.

| Molecule | water solubility (Water solubility) | Extinction 576 nm (erythrocytes; amphotericin B 0.1 mg/ml in the test batch (0.12 mg/ml in the solution)) | Extinction 576 nm (erythrocytes; amphotericin B 0.2 mg/ml in the test batch (0.24 mg/ml in the solution)) | Extinction 576 nm (erythrocytes; amphotericin B 0.4 mg/ml in the test batch (0.48 mg/ml in the solution)) | Extinction 576 nm (erythrocytes; amphotericin B 0.83 mg/ml in the test batch (1.00 mg/ml stock solution)) |
| --- | --- | --- | --- | --- | --- |
| C[C@@H]1[C@H](O)[C@@H](C)/C=C/C=C/C=C/C=C/C=C/C=C/C=C/[C@H](O[C@@H]2O[C@H](C)[C@@H](O)[C@H](N)[C@@H]2O)C[C@@H]2O[C@](O)(C[C@@H](O)C[C@@H](O)[C@H](O)CC[C@@H](O)C[C@@H](O)CC(=O)O[C@H]1C)C[C@H](O)[C@H]2C(=O)O [Amphotericin B, reference compound] | virtually insoluble in water |  |  |  |  |
| Amphotericin B-HES Conjugate [Ampho HES] | > 0.1 g/5 ml H2O | 0.027 | 0.061 | 0.274*) | 2.452*)**) |
